Measured values from patent US20050106100.

How the values were obtained:
Ac-PLG˜LYT-Ahxh-Hynic = target: T1, Ac-PLG˜LYT-Ahxh-Hynic (not fully specified)
T1 chain: PLGLYT

[1] = target: T2, Ac-PLG˜Hphe-YLA-Ahxh-Hynic
T2 chain: PLGXYLA

[2] = target: T3, Ac-PLG˜Hphe-YL-Ahxh-Hynic (not fully specified)
T3 chain: PLGXYL

[3] = target: T4, Ac-PL-NLys˜Hphe-RL-Ahxh-Ac[C14] (not fully specified)
T4 chain: PLXXRL

[4] = target: T5, Ac-PL-NLys˜Hphe-L-Ahxh-Ac[C14] (not fully specified)
T5 chain: PLXXL

[5] = target: T6, Ac-PLG˜L-Cha-Ahxh-Ac[C14] (not fully specified)
T6 chain: PLGLX

Ac-PLG˜LY-Ahxh-Ac[C14] = target: T7, Ac-PLG˜LY-Ahxh-Ac[C14] (not fully specified)
T7 chain: PLGLY

[6] = target: T8, Ac-PLG˜Ahp-OL-Ahxh-Ac[C14] (not fully specified)
T8 chain: PLGXXL

[7] = target: T9, H-DArg-P-Cit-G˜cLeu-LA-Ahxh-Hynic (not fully specified)
T9 chain: RPXGXLA

[8] = target: T10, Ac-P-Cit-G˜Aib-LA-Ahxh-Hynic (not fully specified)
T10 chain: PXGXLA

[9] = target: T11, Ac-POG˜Hphe-LQ-Ahxh-Hynic
T11 chain: PXGXLQ

Ac-PLG˜L-Cha-Ahxh-Hynic = target: T12, Ac-PLG˜L-Cha-Ahxh-Hynic
T12 chain: PLGLX

Ac-PR-Cit˜LSA-Ahxh-Hynic = target: T13, Ac-PR-Cit˜LSA-Ahxh-Hynic
T13 chain: PRXLSA

[10] = target: T14, Ac-PLG˜Hphe-K(Me)2-L-Ahxh-Hynic (not fully specified)
T14 chain: PLGXKL

Ac-PLG˜LOL-Ahxh-Hynic = target: T15, Ac-PLG˜LOL-Ahxh-Hynic (not fully specified)
T15 chain: PLGLXL

[11] = target: T16, Ac-P-O(Me)2-G˜Hphe-L-Nle-Ahxh-Hynic (not fully specified)
T16 chain: PXGXLX

[12] = target: T17, Ac-P-Cit-G˜Hphe-Cit-L-Ahxh-Hynic (not fully specified)
T17 chain: PXGXXL

[13] = target: T18, Ac-PLG˜Hphe-KL-Ahxh-Ac[C14] (not fully specified)
T18 chain: PLGXKL

[14] = target: T19, Ac-P-Cit-G˜Hphe-LA-Ahxh-Hynic (not fully specified)
T19 chain: PXGXLA

Ac-PLG˜LWA-Ahxh-Ac[C14] = target: T20, Ac-PLG˜LWA-Ahxh-Ac[C14] (not fully specified)
T20 chain: PLGLWA

[15] = target: T21, Ac-NLys-PLG˜Hphe-RLA-Ahxh-Hynic (not fully specified)
T21 chain: XPLGXRLA

[16] = target: T22, NLys-NLys-PLG˜Hphe-YL-Ahxh-Hynic
T22 chain: XXPLGXYL

[17] = target: T23, Ac-PLG˜Hphe-Cit-L-Ahxh-Hynic (not fully specified)
T23 chain: PLGXXL

[18] = target: T24, Ac-Inp-Cit-G˜Hphe-LA-Ahxh-Hynic (not fully specified)
T24 chain: XXGXLA

[19] = target: T25, Ac-P-Cit-G˜Hphe-L-Ahxh-Hynic (not fully specified)
T25 chain: PXGXL

[20] = target: T26, Ac-PRG˜Hphe-Dab-A-Ahxh-Hynic
T26 chain: PRGXXA

Ac-NGlu-POG˜Hphe-L-Hynic = target: T27, Ac-NGlu-POG˜Hphe-L-Hynic (not fully specified)
T27 chain: XPXGXL

[21] = target: T28, Ac-Hpro-Cit-G˜Hphe-TA-Ahxh-Hynic (not fully specified)
T28 chain: XXGXTA

[22] = target: T29, Ac-PLG˜Ahp-YL-Ahxh-Ac[C14] (not fully specified)
T29 chain: PLGXYL

[23] = target: T30, Ac-PLG˜Hphe-YL-Ambh-Hynic
T30 chain: PLGXYL

Ac-PLG˜LL-Ambh-Hynic = target: T31, Ac-PLG˜LL-Ambh-Hynic
T31 chain: PLGLL

[24] = target: T32, Ac-P-Cit-G˜Abu-LA-Ahxh-Hynic (not fully specified)
T32 chain: PXGXLA

[25] = target: T33, Ac-PLG-Hphe-OL-Ahxh-Ac[C14]
T33 chain: PLGXXL

[26] = target: T34, Ac-P-Cit-G˜Igl-LA-Ahxh-Hynic (not fully specified)
T34 chain: PXGXLA

[27] = target: T35, Ac-PLG˜Hphe-OLA-Ahxh-Hynic
T35 chain: PLGXXLA

[28] = target: T36, Ac-Tic-Cit-G˜Hphe-SA-Ahxh-Hynic
T36 chain: XXGXSA

[29] = target: T37, Ac-NLys-PLG˜LL-Ahxh-Hynic (not fully specified)
T37 chain: XPLGLL

[30] = target: T38, Ac-P-Cit-G˜Tle-LA-Ahxh-Hynic (not fully specified)
T38 chain: PXGXLA

[31] = target: T39, Ac-PLG˜S(OBn)-LL-Ahxh-Hynic
T39 chain: PLGSLL

[32] = target: T40, Ac-P-Cit-G˜Hphe-Cha-A-Ahxh-Ac[C14] (not fully specified)
T40 chain: PXGXXA

[33] = target: T41, H-NLys-PLG˜LYT-Ahxh-Hynic (not fully specified)
T41 chain: XPLGLYT

[34] = target: T42, Ac-Oic-LG˜LL-Ahxh-Ac[C14] (not fully specified)
T42 chain: XLGLL

[35] = target: T43, Ac-PL-NLys-LL-NHNH-Ac[C14]
T43 chain: PLXLL

[36] = target: T44, Ac-POG˜Hphe-LTR-Ahxh-Ac[C14]
T44 chain: PXGXLTR

[37] = target: T45, Ac-PLG˜Hphe-R-Ahxh-Ac[C14] (not fully specified)
T45 chain: PLGXR

Ac-POG˜Hphe-L-Hynic = target: T46, Ac-POG˜Hphe-L-Hynic
T46 chain: PXGXL

[38] = target: T47, Ac-Csa-PLG˜Hphe-YL-Ambh-Hynic (not fully specified)
T47 chain: XPLGXYL

Ac-P-Cit-G-Hphe-LA-Hynic = target: T48, Ac-P-Cit-G-Hphe-LA-Hynic
T48 chain: PXGXLA

[39] = target: T49, Ac-PL-NLys˜LL-Ambh-Ac[C14] (not fully specified)
T49 chain: PLXLL

Suc-PLG˜LYT-Ahxh-Hynic = target: T50, Suc-PLG˜LYT-Ahxh-Hynic
T50 chain: PLGLYT

Ac-VRW˜LLA-Ahxh-Hynic = target: T51, Ac-VRW˜LLA-Ahxh-Hynic
T51 chain: VRWLLA

B1: MMP-2 (protein)
chain: APSPIIKFPGDVAPKTDKELAVQYLNTFYGCPKESCNLFVLKDTLKKMQKFFGLPQTGDLDQNTIETMRKPRCGNPDVANYNFFPRKPKWDKNQITYRIIGYTPDLDPETVDDAFARAFQVWSDVTPLRFSRIHDGEADIMINFGRWEHGDGYPFDGKDGLLAHAFAPGTGVGGDSHFDDDELWTLGEGQVVRVKYGNADGEYCKFPFLFNGKEYNSCTDTGRSDGFLWCSTTYNFEKDGKYGFCPHEALFTMGGNAEGQPCKFPFRFQGTSYDSCTTEGRTDGYRWCGTTEDYDRDKKYGFCPETAMSTVGGNSEGAPCVFPFTFLGNKYESCTSAGRSDGKMWCATTANYDDDRKWGFCPDQGYSLFLVAAHEFGHAMGLEHSQDPGALMAPIYTYTKNFRLSQDDIKGIQELYGASPDIDLGTGPTPTLGPVTPEICKQDIVFDGIAQIRGEIFFFKDRFIWRTVTPRDKPMGPLLVATFWPELPEKIDAVYEAPQEEKAVFFAGNEYWIYSASTLERGYPKPLTSLGLPPDVQRVDAAFNWSKNKKTYIFAGDKFWRYNEVKKKMDPGFPKLIADAWNAIPDNLDAVVDLQGGGHSYFFKGAYYLKLENQSLKSVKFGSIKSDWLGC
In the case of B1, the Kcat/Km (Ac-PLG˜LYT-Ahxh-Hynic) is reported as 186000 M⁻¹ s⁻¹, the Kcat/Km [1] is reported as 221000 M⁻¹ s⁻¹ and the Kcat/Km [2] is reported as > 100000 M⁻¹ s⁻¹. The Kcat/Km [3] was 102000 M⁻¹ s⁻¹, the Kcat/Km [4] was 465000 M⁻¹ s⁻¹ and the Kcat/Km [5] was 359000 M⁻¹ s⁻¹. For the same protein, the Kcat/Km (Ac-PLG˜LY-Ahxh-Ac[C14]) was 283000 M⁻¹ s⁻¹, the Kcat/Km [6] was 4970 M⁻¹ s⁻¹ and the Kcat/Km [7] was 77 M⁻¹ s⁻¹. The Kcat/Km [8] was 0 M⁻¹ s⁻¹, the Kcat/Km [9] was > 250000 M⁻¹ s⁻¹ and the Kcat/Km (Ac-PLG˜L-Cha-Ahxh-Hynic) was 120000 M⁻¹ s⁻¹. The Kcat/Km (Ac-PR-Cit˜LSA-Ahxh-Hynic) was 14700 M⁻¹ s⁻¹, the Kcat/Km [10] was 72000 M⁻¹ s⁻¹ and the Kcat/Km (Ac-PLG˜LOL-Ahxh-Hynic) was 91400 M⁻¹ s⁻¹. For the same protein, the Kcat/Km [11] was 567000 M⁻¹ s⁻¹, the Kcat/Km [12] was 42600 M⁻¹ s⁻¹ and the Kcat/Km [13] was 103000 M⁻¹ s⁻¹. For the same protein, the Kcat/Km [14] was 827000 M⁻¹ s⁻¹, the Kcat/Km (Ac-PLG˜LWA-Ahxh-Ac[C14]) was 712000 M⁻¹ s⁻¹ and the Kcat/Km [15] was 461000 M⁻¹ s⁻¹. The Kcat/Km [16] was 26300 M⁻¹ s⁻¹, the Kcat/Km [17] was 157000 M⁻¹ s⁻¹ and the Kcat/Km [18] was 4580 M⁻¹ s⁻¹. The Kcat/Km [19] was 161000 M⁻¹ s⁻¹, the Kcat/Km [20] was 591000 M⁻¹ s⁻¹ and the Kcat/Km (Ac-NGlu-POG˜Hphe-L-Hynic) was 265 M⁻¹ s⁻¹. For the same protein, the Kcat/Km [21] was 99600 M⁻¹ s⁻¹, the Kcat/Km [22] was 38700 M⁻¹ s⁻¹ and the Kcat/Km [23] was 63200 M⁻¹ s⁻¹. It also gave a Kcat/Km (Ac-PLG˜LL-Ambh-Hynic) of 33600 M⁻¹ s⁻¹, a Kcat/Km [24] of 17600 M⁻¹ s⁻¹ and a Kcat/Km [25] of 53800 M⁻¹ s⁻¹. For the same protein, the Kcat/Km [26] was 189 M⁻¹ s⁻¹, the Kcat/Km [27] was 29500 M⁻¹ s⁻¹ and the Kcat/Km [28] was 3100 M⁻¹ s⁻¹. For the same protein, the Kcat/Km [29] was 76300 M⁻¹ s⁻¹, the Kcat/Km [30] was 164 M⁻¹ s⁻¹ and the Kcat/Km [31] was 180000 M⁻¹ s⁻¹. The Kcat/Km [32] was > 500000 M⁻¹ s⁻¹, the Kcat/Km [33] was 85100 M⁻¹ s⁻¹ and the Kcat/Km [34] was 0 M⁻¹ s⁻¹. The Kcat/Km [35] was 134000 M⁻¹ s⁻¹, the Kcat/Km [36] was > 500000 M⁻¹ s⁻¹ and the Kcat/Km [37] was > 500000 M⁻¹ s⁻¹. For the same protein, the Kcat/Km (Ac-POG˜Hphe-L-Hynic) was 63700 M⁻¹ s⁻¹, the Kcat/Km [38] was 19500 M⁻¹ s⁻¹ and the Kcat/Km (Ac-P-Cit-G-Hphe-LA-Hynic) was > 250000 M⁻¹ s⁻¹. The Kcat/Km [39] was 68600 M⁻¹ s⁻¹, the Kcat/Km (Suc-PLG˜LYT-Ahxh-Hynic) was 141000 M⁻¹ s⁻¹ and the Kcat/Km (Ac-VRW˜LLA-Ahxh-Hynic) was 43000 M⁻¹ s⁻¹.
